Laboratory results published in the Immune Epitope Database (IEDB).

Experiments:
HLA-B*15:01 [1] = test: IEDB peptide-MHC binding, purified MHC/competitive/fluorescence; filed as Kd, often an IC50 or EC50 that approximates it; ≥ and ≤ were set here for values at or beyond the usual limits of such assays; details: source organism: Bacillus anthracis str. A0488
HLA-A*24:02 = test: IEDB peptide-MHC binding, purified MHC/competitive/radioactivity; filed as Kd, often an IC50 or EC50 that approximates it; ≥ and ≤ were set here for values at or beyond the usual limits of such assays
HLA-A*29:02 = test: as above
HLA-A*23:01 = test: as above
HLA-A*26:01 [2] = test: as above
HLA-A*30:02 = test: as above
HLA-A*01:01 [3] = test: as above
HLA-A*30:01 = test: as above
HLA-A*32:01 = test: as above
HLA-B*40:01 [4] = test: as above
HLA-B*44:03 = test: as above; details: source organism: Dengue virus 1 Brazil/97-11/1997
HLA-B*40:01 [5] = test: IEDB peptide-MHC binding, purified MHC/direct/fluorescence; filed as Kd, often an IC50 or EC50 that approximates it; ≥ and ≤ were set here for values at or beyond the usual limits of such assays
HLA-B*44:02 = test: as above; details: source organism: Influenza A virus (A/egret/Hong Kong/757.3/2002(H5N1))
HLA-B*15:17 = test: IEDB peptide-MHC binding, purified MHC/competitive/fluorescence; filed as Kd, often an IC50 or EC50 that approximates it; ≥ and ≤ were set here for values at or beyond the usual limits of such assays
HLA-B*08:01 = test: IEDB peptide-MHC binding, purified MHC/direct/fluorescence; filed as Kd, often an IC50 or EC50 that approximates it; ≥ and ≤ were set here for values at or beyond the usual limits of such assays
HLA-B*27:05 = test: as above
HLA-B*07:02 = test: as above
HLA-A*69:01 = test: as above
HLA-B*58:01 = test: as above
HLA-A*31:01 = test: as above
HLA-A*03:01 = test: as above
HLA-A*26:01 [6] = test: as above
HLA-B*15:01 [7] = test: as above
HLA-A*02:01 = test: as above
HLA-A*11:01 = test: as above
HLA-A*01:01 [8] = test: as above; details: source organism: Comamonas sediminis
[9] = source organism: Mammarenavirus whitewaterense
[10] = source organism: Mammarenavirus brazilense
[11] = source organism: SARS coronavirus Tor2
[12] = source organism: Mammarenavirus guanaritoense
[13] = source organism: Dengue virus 2 Jamaica/1409/1983
[14] = source organism: Dengue virus 1 Brazil/97-11/1997
[15] = source organism: Mammarenavirus lassaense
[16] = source organism: Mammarenavirus juninense
[17] = source organism: Corynebacterium glutamicum
[18] = source organism: Corynebacterium efficiens
[19] = source organism: Comamonas sediminis

AEVRPVVSY
Kd (HLA-B*15:01 [1]): 73.5 nM

CSYKIGHHV
Kd (HLA-A*24:02; [9]): ≥ 29200 nM
Kd (HLA-A*29:02; [9]): ≥ 26300 nM
Kd (HLA-A*23:01; [9]): 17500 nM
Kd (HLA-A*26:01 [2]; [9]): ≥ 64500 nM
Kd (HLA-A*30:02; [9]): 94.4 nM
Kd (HLA-A*01:01 [3]; [9]): 59.1 nM

DTGNYILCY
Kd (HLA-A*30:01; [10]): 2440 nM
Kd (HLA-A*32:01; [10]): ≥ 24800 nM
Kd (HLA-A*29:02; [10]): 1410 nM
Kd (HLA-A*26:01 [2]; [10]): 5730 nM
Kd (HLA-A*30:02; [10]): 18000 nM
Kd (HLA-A*01:01 [3]; [10]): 273 nM

ELINIPYCNY
Kd (HLA-A*30:01; [9]): ≥ 70400 nM
Kd (HLA-A*32:01; [9]): ≥ 28300 nM
Kd (HLA-A*29:02; [9]): 1810 nM
Kd (HLA-A*26:01 [2]; [9]): 227 nM
Kd (HLA-A*30:02; [9]): 88.8 nM
Kd (HLA-A*01:01 [3]; [9]): 15800 nM

FFASFYYIW
Kd (HLA-A*24:02; [11]): 20.9 nM
Kd (HLA-A*29:02; [11]): 94.5 nM
Kd (HLA-A*23:01; [11]): 176 nM
Kd (HLA-A*26:01 [2]; [11]): ≥ 26200 nM
Kd (HLA-A*30:02; [11]): ≥ 67100 nM
Kd (HLA-A*01:01 [3]; [11]): ≥ 37600 nM

FYSEESPTEY
Kd (HLA-A*30:01; [12]): ≥ 48700 nM
Kd (HLA-A*32:01; [12]): ≥ 69900 nM
Kd (HLA-A*29:02; [12]): 80.1 nM
Kd (HLA-A*26:01 [2]; [12]): 7360 nM
Kd (HLA-A*30:02; [12]): ≥ 27000 nM
Kd (HLA-A*01:01 [3]; [12]): 192 nM

GEEVQVLAL
Kd (HLA-B*40:01 [4]; [13]): 3.09 nM

GEVDSFSLGI
Kd (HLA-B*40:01 [4]; [14]): 56.7 nM
Kd (HLA-B*44:03): 19.4 nM

GYKETPFLTI
Kd (HLA-A*24:02; [10]): 159 nM
Kd (HLA-A*29:02; [10]): 108 nM
Kd (HLA-A*23:01; [10]): 139 nM

HDLMMGYAWI
Kd (HLA-A*24:02; [15]): ≥ 40100 nM
Kd (HLA-A*29:02; [15]): ≥ 63900 nM
Kd (HLA-A*23:01; [15]): 8220 nM
Kd (HLA-A*26:01 [2]; [15]): ≥ 69700 nM
Kd (HLA-A*30:02; [15]): 19200 nM
Kd (HLA-A*01:01 [3]; [15]): ≥ 51000 nM

HEGYEEFTM
Kd (HLA-B*40:01 [5]; source organism: Influenza A virus (A/egret/Hong Kong/757.3/2002(H5N1))): 11.9 nM
Kd (HLA-B*44:02): ≥ 20000 nM

HEWCCRSCTL
Kd (HLA-B*40:01 [4]; [14]): 3.99 nM

IAMGYVVSSF
Kd (HLA-A*30:01; [16]): 9100 nM
Kd (HLA-A*32:01; [16]): 996 nM
Kd (HLA-A*29:02; [16]): 1490 nM
Kd (HLA-A*26:01 [2]; [16]): 530 nM
Kd (HLA-A*30:02; [16]): 220 nM
Kd (HLA-A*01:01 [3]; [16]): 5140 nM

IEEGRTLRVL
Kd (HLA-B*40:01 [4]; [14]): 71.8 nM

IENTTANISL
Kd (HLA-B*40:01 [4]; [14]): 3.15 nM

IGAGICASY
Kd (HLA-A*24:02; [11]): ≥ 60000 nM
Kd (HLA-A*29:02; [11]): 19.9 nM
Kd (HLA-A*23:01; [11]): ≥ 77800 nM
Kd (HLA-A*26:01 [2]; [11]): 6650 nM
Kd (HLA-A*30:02; [11]): 1.18 nM
Kd (HLA-A*01:01 [3]; [11]): ≥ 47800 nM

ITWETPMIW
Kd (HLA-B*15:17; [17]): ≤ 1 nM
Kd (HLA-B*08:01; [18]): ≥ 20000 nM
Kd (HLA-B*27:05; [18]): ≥ 20000 nM
Kd (HLA-B*07:02; [18]): ≥ 20000 nM
Kd (HLA-A*69:01; [17]): 507 nM
Kd (HLA-B*58:01; [17]): 4.43 nM
Kd (HLA-B*40:01 [5]; [18]): ≥ 20000 nM
Kd (HLA-A*31:01; [18]): ≥ 20000 nM
Kd (HLA-A*03:01; [18]): ≥ 20000 nM
Kd (HLA-A*26:01 [6]; [18]): ≥ 20000 nM
Kd (HLA-B*15:01 [7]; [18]): ≥ 20000 nM
Kd (HLA-A*02:01; [18]): ≥ 20000 nM
Kd (HLA-A*11:01; [18]): ≥ 20000 nM

KEEESEGAI
Kd (HLA-B*40:01 [4]; source organism: Dengue virus 3 Martinique/1243/1999): 46.4 nM

KEFAAGRKSL
Kd (HLA-B*40:01 [4]; [13]): 9.63 nM

KSLGIDQIW
Kd (HLA-B*15:17; [19]): 1.35 nM
Kd (HLA-B*08:01; [19]): ≥ 20000 nM
Kd (HLA-B*27:05; [19]): ≥ 20000 nM
Kd (HLA-B*07:02; [19]): ≥ 20000 nM
Kd (HLA-A*69:01; [19]): ≥ 20000 nM
Kd (HLA-B*58:01; [19]): 8.29 nM
Kd (HLA-B*40:01 [5]; [19]): ≥ 20000 nM
Kd (HLA-A*31:01; [19]): 4660 nM
Kd (HLA-A*03:01; [19]): ≥ 20000 nM
Kd (HLA-A*26:01 [6]; [19]): ≥ 20000 nM
Kd (HLA-B*15:01 [7]; [19]): 1770 nM
Kd (HLA-A*02:01; [19]): ≥ 20000 nM
Kd (HLA-A*01:01 [8]): ≥ 20000 nM
Kd (HLA-A*11:01; [19]): ≥ 20000 nM

KTSVDCNMY
Kd (HLA-A*24:02; [11]): ≥ 77600 nM
Kd (HLA-A*29:02; [11]): 2720 nM
Kd (HLA-A*23:01; [11]): ≥ 77800 nM
Kd (HLA-A*26:01 [2]; [11]): ≥ 81500 nM
Kd (HLA-A*30:02; [11]): 2.66 nM
Kd (HLA-A*01:01 [3]; [11]): 98.6 nM
